Test results from patent US20140120095A1 (Boehringer Ingelheim, published 2014).

How the values were obtained:
[1] = molecular target: T1, recombinant human DLL4 (human, UniProt Q9NR61 25-522); assay: binding ELISA, coated rhDLL4
T1 construct: also called rhDLL4; hDLL4
Protocol: In order to determine cross-reactivity to mouse DII4 a binding ELISA is performed. […] Wells are blocked with a casein solution (1% in PBS). VHHs are applied as dilution series and binding is detected using a mouse anti-myc (Roche) and an anti-mouse-AP conjugate (Sigma, St Louis, Mo., USA) (FIG. 7 A-H). As reference, binding to human DII4 is measured.

[2] = molecular target: T1, recombinant human DLL4; assay: competition AlphaScreen, biot-hDLL4/hNotch1-Fc
Protocol: In brief, 1 nM biotinylated human DII4 is captured on streptavidin-coated donor beads (20 μg/mL), while 0.4 nM of the receptor human Notch1 (as a Fc fusion protein) is captured on anti-human Fc VHH-coated acceptor beads (20 μg/mL). Both loaded beads are incubated together with a dilution range of the competing VHH (FIG. 4 A-E).

[3] = molecular target: T2, mouse DLL4 overexpressed on cells (mouse, UniProt Q9JI71 27-686); assay: FMAT, labelled hNotch1-Fc on CHO-mDLL4, periplasmic extract
T2 construct: whole, on cells; also called CHO-mDLL4; CHO-mDII4
From the text: (§1) All calculations are based on the FL1_total signal which comprises the average of the fluorescence per well times the number of counts per well.

[4] = molecular target: T3, human DLL1 (human, UniProt O00548 18-545, limits assumed); assay: binding ELISA on coated recombinant human DLL1, OD 405 nm
T3 construct: also called hDLL1
T3 sequence (looked up): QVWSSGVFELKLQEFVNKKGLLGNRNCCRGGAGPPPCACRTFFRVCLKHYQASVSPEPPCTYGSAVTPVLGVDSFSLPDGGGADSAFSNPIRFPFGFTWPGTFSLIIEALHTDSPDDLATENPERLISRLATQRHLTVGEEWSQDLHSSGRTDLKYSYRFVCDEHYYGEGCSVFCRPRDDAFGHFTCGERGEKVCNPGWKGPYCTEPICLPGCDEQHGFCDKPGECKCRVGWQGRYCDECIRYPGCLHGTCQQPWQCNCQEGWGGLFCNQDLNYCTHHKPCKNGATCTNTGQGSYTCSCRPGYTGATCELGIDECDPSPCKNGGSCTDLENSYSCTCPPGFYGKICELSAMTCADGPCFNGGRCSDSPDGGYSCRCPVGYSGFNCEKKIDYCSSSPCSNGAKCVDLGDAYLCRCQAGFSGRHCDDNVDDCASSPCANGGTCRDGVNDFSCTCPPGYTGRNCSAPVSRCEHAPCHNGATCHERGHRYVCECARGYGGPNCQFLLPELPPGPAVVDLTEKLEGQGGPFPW
Method in brief: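 Plates coated overnight at 4° C with 1 μg/mL ligand, blocked with 1% casein in PBS. VHH dilution series applied; bound VHH detected via mouse anti-myc then anti-mouse-AP conjugate.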

[5] = molecular target: T4, human DLL4 overexpressed on cells (human, UniProt Q9NR61 27-685); assay: FMAT, labelled hNotch1-Fc on CHO-hDLL4, periplasmic extract
T4 construct: full length human DLL4 on CHO or HEK293 cells; also called CHO-hDLL4; CHO-hDII4
From the text: as §1

[6] = molecular target: T2, mouse DLL4 overexpressed on cells; assay: FACS titration on HEK293-mDLL4 cells, MCF
Protocol: In order to determine the cynomologus cross-reactivity of the VHHs, a FACS binding experiment is performed. Cynomolgus DII4 expressing HEK293 cells (transient or stable transfection) are used for a titration binding experiment of the VHHs. After a 30 minutes incubation on ice, all samples are washed and detection is performed by applying anti-c-myc˜Alexa647 (Santa Cruz Biotechnology, Santa Cruz, Calif., USA). Human and mouse DII4 overexpressing HEK293 cells are taken as reference. The mean MCF value is determined on the FACS Array and used for calculation of the EC₅₀ value (see FIG. 9 A-E).

[7] = molecular target: T5, recombinant human DLL4 (C-terminally His-tagged extracellular domain, R&D Systems) (human, UniProt Q9NR61 25-522, biotinylated in the competition ELISA); assay: cell-based or functional assay
[8] = molecular target: T6, human DLL4 expressed on cells (CHO-hDLL4; HEK293-hDLL4) (human, UniProt Q9NR61 27-685); assay: cell-based or functional assay
[9] = molecular target: T5, recombinant human DLL4 (C-terminally …); assay: SPR (Biacore), recombinant human DLL4
[10] = molecular target: T6, human DLL4 expressed on cells …; assay: competition FMAT, labelled hNotch1-Fc on CHO-hDLL4 cells
[11] = molecular target: T7, mouse DLL4 expressed on CHO cells (mouse, UniProt Q9JI71 27-686); assay: competition FMAT, labelled hNotch1-Fc on CHO-mDLL4 cells
T7 construct: whole, on cells; also called mDLL4; CHO-mDLL4
T7 sequence (Q9JI71 27-686): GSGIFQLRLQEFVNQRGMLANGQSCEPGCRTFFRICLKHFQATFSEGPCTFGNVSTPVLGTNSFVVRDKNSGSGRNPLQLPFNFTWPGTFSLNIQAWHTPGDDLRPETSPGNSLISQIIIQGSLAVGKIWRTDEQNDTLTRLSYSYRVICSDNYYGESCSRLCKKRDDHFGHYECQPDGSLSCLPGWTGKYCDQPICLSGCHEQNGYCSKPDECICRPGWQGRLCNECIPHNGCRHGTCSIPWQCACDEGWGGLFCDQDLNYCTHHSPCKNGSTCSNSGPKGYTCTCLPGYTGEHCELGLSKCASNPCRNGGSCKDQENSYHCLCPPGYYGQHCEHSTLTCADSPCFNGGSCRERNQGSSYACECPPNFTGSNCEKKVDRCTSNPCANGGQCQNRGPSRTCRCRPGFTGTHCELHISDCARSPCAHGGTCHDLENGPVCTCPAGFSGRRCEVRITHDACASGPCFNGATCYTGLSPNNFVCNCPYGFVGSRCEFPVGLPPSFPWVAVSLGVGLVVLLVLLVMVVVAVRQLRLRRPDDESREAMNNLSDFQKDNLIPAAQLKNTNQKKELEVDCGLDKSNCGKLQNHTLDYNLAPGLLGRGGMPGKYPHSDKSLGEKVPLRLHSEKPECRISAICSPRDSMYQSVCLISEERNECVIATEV

T2 sequence (Q9JI71 27-686): as above

| Binder | EC50 [1] | IC50 [2] | % inh [3] | binding result [4] | % inh [5] | EC50 (read off the curve) [6] | IC50, DLL4-mediated HUVEC proliferation assay [7] | Inhibition (%), DLL4-mediated HUVEC proliferation assay [7] | IC50, DLL4-mediated reporter assay (hDLL4) [8] | Kd [9] | koff [9] | kon [9] | IC50 [10] | IC50 [11] |
| --- | --- | --- | --- | --- | --- | --- | --- | --- | --- | --- | --- | --- | --- | --- |
| DLLBII56A09 (VHH, also called 56A9; DLLBII56A9) VHH: EVQLVESGGGLVQPGGSLRLSCAASGFTFDDYAIGWFRQAPGKEPEGISCISSSGGITYYADSVKGRFTTSRDNAKNTVYLQMNSLKPEDTAVYYCATPGIAACRGIHYTGQGTQVTVSS | 3.6 nM | 1.2 nM |  |  |  |  |  |  |  |  |  |  |  |  |
| DLLBII101G08 (VHH, also called 101G8; DLLBII101G8) VHH: EVQLVESGGGLVQAGGSLRLSCAASGRTFSSYAMAWFRQAPGKEREFVAAIRWSGGTAYYADSVQGRFTISRDNAKNTVYLQMNSLKPEDTAVYYCANRAADTRLGPYEYDYWGQGTQVTVSS | 8.9 nM |  | 92% | no binding (tested: 5e-7 M) | 91% | ~40 nM |  |  |  |  |  |  |  |  |
| DLLBII115A05 (VHH, also called 115A5; DLLBII115A5) VHH: EVQLVESGGGLVQPGGSLRLSCAASGFTFGSYDMSWVRRSPGKGPEWVSSINSGGGSTYYADFVKGRFTISRDNAKNTLYLQMNSLKPEDTAVYYCAADRYIRARQGDYWGAYEYDYWGQGTQVTVSS | 5 nM | 5 nM | 84% | no binding (tested: 5e-7 M) | 74% | ~30 nM |  |  |  |  |  |  |  |  |
| DLLBII129B05 (VHH, not shown: small tags and cut ends) VHH: EVQLVESGGGLVQAGGSLRLSCAASGRTFSSYAMAWYRQAPGKEREYVAAIRWSGGTAYYADSVQGRFTISRDNAKNTVYLQMNSLKPEDTAVYYCANRAPDTRLAPYEYDHWGQGTQVTVSS |  |  |  |  |  |  | 3.7 nM | 100% | 108 nM | 0.2 nM | 7.9e-05 s⁻¹ | 340000 M⁻¹ s⁻¹ | 8.2 nM | 15.9 nM |
| DLLBII136C07 (VHH, not shown: small tags and cut ends) VHH: EVQLVESGGGLVQPGGSLRLSCAASGFTFGSYDMSWVRRSPGKGPEWVSSINSGGGSTYYADYVKGRFTISRDNAKNTLYLQMNSLKPEDTAVYYCAADRYIWARQGEYWGAYEYDYWGQGTQVTVSS |  |  |  |  |  |  | 14.5 nM | 100% | 112 nM | 1 nM | 0.00052 s⁻¹ | 550000 M⁻¹ s⁻¹ | 11.4 nM | 50.8 nM |
